Reference: article PMC4117426, “SlmA Antagonism of FtsZ Assembly Employs a Two-pronged Mechanism like MinCD” (PLoS Genetics, 2014)
Positions count from the first letter of the chain named. Names may count otherwise.

T1: 6×His-FtsZ-K190V (E. coli, UniProt P0A9A6 1-383, K190V)
T1 construct: FtsZ, E. coli, His-tagged, with K190V; the construct is not described in the methods; Probably a derivative of pSD119 (N-terminal His6, full length)
T1 sequence (looked up): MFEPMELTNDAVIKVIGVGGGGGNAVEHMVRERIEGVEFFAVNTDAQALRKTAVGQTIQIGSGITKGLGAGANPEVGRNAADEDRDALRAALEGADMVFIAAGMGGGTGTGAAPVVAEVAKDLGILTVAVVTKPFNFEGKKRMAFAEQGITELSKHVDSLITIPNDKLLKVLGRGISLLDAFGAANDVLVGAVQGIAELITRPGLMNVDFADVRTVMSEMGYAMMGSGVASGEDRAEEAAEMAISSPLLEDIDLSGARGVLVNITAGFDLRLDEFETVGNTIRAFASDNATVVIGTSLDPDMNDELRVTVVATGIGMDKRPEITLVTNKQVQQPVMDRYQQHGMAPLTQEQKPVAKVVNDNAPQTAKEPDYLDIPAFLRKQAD

T2: 6×His-FtsZ (E. coli, UniProt P0A9A6 1-383)
T2 construct: FtsZ of E. coli, full length (FtsZ-FL), with an N-terminal 6×His tag, from pSD119; By the primer His-FtsZ-SstI the chain begins M-HHHHHH and goes on with F2 of FtsZ (FEPMELT...); also called 6×His-tagged FtsZ-FL; source: E. coli JS238 with pSD119, arabinose induced, purified (Ni-NTA); not shown: His6, N-terminal, kept
T2 sequence (looked up): T1 sequence (looked up) with V190K

B1: 6×His-SlmA (natural protein, E. coli, UniProt P0C093 1-198, looked up)
chain: MAEKQTAKRNRREEILQSLALMLESSDGSQRITTAKLAASVGVSEAALYRHFPSKTRMFDSLIEFIEDSLITRINLILKDEKDTTARLRLIVLLLLGFGERNPGLTRILTGHALMFEQDRLQGRINQLFERIEAQLRQVLREKRMREGEGYTTDETLLASQILAFCEGMLSRFVRSEFKYRPTDDFDARWPLIAAQLQ
notes: SlmA, E. coli; also called SlmA-WT; His tagged SlmA; source: E. coli JS238/pQE80-slmA, purified (Ni-NTA)
B2: untagged SlmA (natural protein, E. coli, UniProt P0C093 1-198, looked up)
chain: B1 chain
notes: SlmA, E. coli; Used with or without SBS DNA on 6×His-FtsZ tips; also called SlmA (untagged version); source: E. coli BL21 (λDE3)/pLysS with pSUMO-SlmA, purified (Ni-NTA; tag cleaved with Ulp1, flow-through collected)
B3: SlmA (untagged version) (natural protein, E. coli, UniProt P0C093 1-198, looked up)
chain: B1 chain
notes: SlmA of E. coli; The forward primer slmA-SUMO-F begins at the second codon (GCA, Ala2), so the cleaved protein probably lacks the first methionine; also called SlmA-WT; nucleoid occlusion factor SlmA; source: E. coli BL21 (λDE3)/pLysS with pSUMO-SlmA, purified (Ni-NTA; H-SUMO tag cleaved with Ulp1, tag and protease removed on Ni-NTA); not shown: His-SUMO (H-SUMO), N-terminal, cleaved
B4: ZipA_(185–328) (domain or fragment)
chain: not shown
notes: amplified from chromosomal DNA; also called C-terminal domain of ZipA; source: expressed from pSD198 (pQE80 derivative)
B5: 6×His-FtsZ360 (domain or fragment, E. coli, UniProt P0A9A6 1-360, looked up)
chain: MFEPMELTNDAVIKVIGVGGGGGNAVEHMVRERIEGVEFFAVNTDAQALRKTAVGQTIQIGSGITKGLGAGANPEVGRNAADEDRDALRAALEGADMVFIAAGMGGGTGTGAAPVVAEVAKDLGILTVAVVTKPFNFEGKKRMAFAEQGITELSKHVDSLITIPNDKLLKVLGRGISLLDAFGAANDVLKGAVQGIAELITRPGLMNVDFADVRTVMSEMGYAMMGSGVASGEDRAEEAAEMAISSPLLEDIDLSGARGVLVNITAGFDLRLDEFETVGNTIRAFASDNATVVIGTSLDPDMNDELRVTVVATGIGMDKRPEITLVTNKQVQQPVMDRYQQHGMAPLTQEQKPVAKVVND
notes: FtsZ, E. coli, truncated by two stop codons after codon 360; lacks the conserved C-terminal tail; source: E. coli JS238 with pSD119-Z360, purified (Ni-NTA); not shown: His6, N-terminal, kept
B6: FtsZ (natural protein, E. coli, UniProt P0A9A6 1-383, looked up)
chain: T1 sequence (looked up) with V190K
notes: FtsZ, E. coli, untagged, from pSEB160; also called FtsZ-WT; WT FtsZ
B7: 6×His-FtsZ (natural protein, E. coli, UniProt P0A9A6 1-383, looked up)
chain: T1 sequence (looked up) with V190K
notes: FtsZ, E. coli; 6×His-tagged ftsZ amplified from pSEB160 (pSD119); By the printed primer the six His codons follow the start codon and precede Phe2; also called 6×His-tagged FtsZ-FL; source: E. coli JS238 with pSD119, purified (Ni-NTA); not shown: His6, N-terminal, kept
B8: FtsZ-D86N (natural protein, E. coli, UniProt P0A9A6 1-383, looked up)
chain: T1 sequence (looked up) with D86N, V190K
notes: FtsZ, E. coli, untagged, with D86N; pSEB160 derivative
B9: FtsZ-K190V (natural protein, E. coli, UniProt P0A9A6 1-383, looked up)
chain: T1 sequence (looked up)
notes: FtsZ, E. coli, untagged, with K190V; pSEB160 derivative

Experiments:
FtsZ-D86N = target: B8; assay: BLI; biotinylated SBS17-30mer (50 nM) on streptavidin tips, loaded with 4 µM SlmA or SlmA mutant; FtsZ or variants (4 µM, preincubated with 1 mM GDP) or peptides (up to 320 µM) in solution; 1× Pol buffer, room temperature; conditions: both partners purified
FtsZ-K190V = target: B9; assay: co-sedimentation; stable FtsZ polymers formed with GMPCPP (1 mM); proteins 5 µM, SBS17-30mer DNA 2 µM; Pol buffer (50 mM HEPES-NaOH pH 8.0, 200 mM KCl, 10 mM MgCl2); 80,000 rpm 15 min 25°C; supernatant and pellet by SDS-PAGE; conditions: both partners purified
6×His-FtsZ-K190V = target: T1, 6×His-FtsZ-K190V; assay: BLI; 6×His-FtsZ or variant (1 µM) immobilised on Ni-NTA tips; untagged SlmA preincubated with SBS17-30mer DNA in solution; 1× Pol buffer, room temperature; global fitting; conditions: both partners purified
6×His-FtsZ [1] = target: B7; assay: as above; conditions: both partners purified
6×His-FtsZ [2] = target: T2, 6×His-FtsZ; assay: BLI; 6×His-FtsZ (loaded at 1 µM) immobilised on Ni-NTA biosensor; untagged SlmA without SBS DNA in solution; 1× Pol buffer (50 mM HEPES-NaOH pH 8.0, 200 mM KCl, 10 mM MgCl2), room temperature; global fit (GraphPad Prism 5); conditions: both partners purified
6×His-FtsZ [3] = target: T2, 6×His-FtsZ; assay: BLI; 6×His-FtsZ (loaded at 1 µM) immobilised on Ni-NTA biosensor; untagged SlmA preincubated with SBS-14mer DNA in solution; 1× Pol buffer (50 mM HEPES-NaOH pH 8.0, 200 mM KCl, 10 mM MgCl2), room temperature; global fit (GraphPad Prism 5); conditions: both partners purified
6×His-FtsZ [4] = target: T2, 6×His-FtsZ; assay: BLI; 6×His-FtsZ (loaded at 1 µM) immobilised on Ni-NTA biosensor; untagged SlmA preincubated with SBS17-30mer DNA in solution; 1× Pol buffer (50 mM HEPES-NaOH pH 8.0, 200 mM KCl, 10 mM MgCl2), room temperature; global fit (GraphPad Prism 5); conditions: both partners purified
6×His-FtsZ [5] = target: T2, 6×His-FtsZ; assay: BLI; 6×His-FtsZ (loaded at 1 µM) immobilised on Ni-NTA biosensor; untagged SlmA preincubated with SBS-18mer DNA in solution; 1× Pol buffer (50 mM HEPES-NaOH pH 8.0, 200 mM KCl, 10 mM MgCl2), room temperature; global fit (GraphPad Prism 5); conditions: both partners purified
6×His-FtsZ [6] = target: T2, 6×His-FtsZ; assay: BLI; 6×His-FtsZ (loaded at 1 µM) immobilised on Ni-NTA biosensor; untagged SlmA preincubated with SBS17-20mer DNA in solution; 1× Pol buffer (50 mM HEPES-NaOH pH 8.0, 200 mM KCl, 10 mM MgCl2), room temperature; global fit (GraphPad Prism 5); conditions: both partners purified
FtsZ = target: B6; assay: BLI; competition: SlmA/SBS17-30mer on streptavidin tips; 4 µM FtsZ preincubated with various concentrations of ZipA185-328 (with GDP); conditions: both partners purified
[7] = target: the molecule itself; assay: negative-stain electron microscopy of polymers; FtsZ or variant 2 µM with 1 mM GTP in Pol buffer (50 mM HEPES-NaOH pH 8.0, 200 mM KCl, 10 mM MgCl2), room temperature 5 min, 1% uranyl acetate; self-assembly into filaments

Binder: B1
binding result (FtsZ-D86N): binds
binding result (FtsZ-K190V): binds

Binder: B2
binding result (6×His-FtsZ-K190V): binds
Kd (6×His-FtsZ [1]): 210 nM

Binder: B3
Kd (6×His-FtsZ [2]): 21000 nM
koff (6×His-FtsZ [2]): 0.149 s⁻¹
kon (6×His-FtsZ [2]): 7100 M⁻¹ s⁻¹
Kd (6×His-FtsZ [3]): 206 nM
koff (6×His-FtsZ [3]): 0.0057 s⁻¹
kon (6×His-FtsZ [3]): 27500 M⁻¹ s⁻¹
koff (6×His-FtsZ [4]): 0.0155 s⁻¹
kon (6×His-FtsZ [4]): 74000 M⁻¹ s⁻¹
Kd (6×His-FtsZ [5]): 309 nM
koff (6×His-FtsZ [5]): 0.0067 s⁻¹
kon (6×His-FtsZ [5]): 21600 M⁻¹ s⁻¹
Kd (6×His-FtsZ [6]): 789 nM
koff (6×His-FtsZ [6]): 0.0143 s⁻¹
kon (6×His-FtsZ [6]): 18100 M⁻¹ s⁻¹

Binder: B4
percent decrease of the FtsZ binding signal on SlmA/SBS17-30mer at a 1:1 ratio of FtsZ to ZipA185-328 (FtsZ): ~30%

Binder: B5
binding result [7]: binds

Binder: B6
binding result [7]: binds

Binder: B7
binding result [7]: binds

Binder: B8
binding result [7]: binds

Binder: B9
binding result [7]: binds
